System: CsrA-2 (rCsrA-2) (Coxiella burnetii)
Assay: EMSA
Details: 30 min 37 C, pH not stated

## CbsR12
  Kd: 0.13 µM
